Experimental findings from patent US20230265192A1 (GIGAGEN, published 2023) are described below.

Substitutions are numbered along the chain they refer to.

By Kd is commonly meant the constant that tells how readily two partners part at equilibrium. By koff is commonly meant the first-order rate constant of dissociation. A lower koff goes with slow dissociation. The term kon denotes the rate constant with which the complex forms. High values mean fast association, low ones slow association.

Assay [1] deals with T1, His-tagged cynomolgus CTLA-4 (CT4-C5227; Acro Biosystems) (cynomolgus, UniProt G7PL88 36-161).
T1 construct: also called soluble cynomolgus CTLA-4; cyno CTLA-4
T1 sequence (G7PL88 entry or part of it limits assumed, form in doubt): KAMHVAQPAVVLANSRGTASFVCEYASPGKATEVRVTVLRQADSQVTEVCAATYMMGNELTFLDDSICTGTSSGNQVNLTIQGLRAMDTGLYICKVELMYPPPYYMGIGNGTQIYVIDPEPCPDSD
The assay can be described thus: BLI (Octet). As for the experimental part:
(§1) The binding specificity and affinity of each full-length antibody towards CTLA-4 were determined using biolayer interferometry (BLI) and/or surface plasmon resonance (SPR). Anti-cyno CTLA-4 and anti-mouse CTLA-4 affinities were tested using ForteBio (BLI). Anti-human CTLA-4 affinities were measured using Carterra (SPR).
(§2) For BLI, antibodies were loaded onto an Anti-Human IgG Fc (AHC) biosensor using the Octet Red96 system (ForteBio). Loaded biosensors were dipped into antigen dilutions beginning at 300 nM, with 6 serial dilutions at 1:3. Kinetic analysis was performed using a 1:1 binding model and global fitting.
In general terms: BLI is a label-free optical method that tracks binding on a fibre tip over time.

Another assay concerns the target mouse CTLA-4 (mouse, UniProt P09793 36-161, limits assumed). The assay can be described thus: BLI (Octet). As for the experimental part: as §1, §2
The target in assay [2] is T2, His-tagged human CTLA-4 (CT4-H5229; Acro Biosystems) (human, UniProt P16410 36-161).
T2 construct: bought soluble protein; also called soluble human CTLA-4; recombinant human CTLA-4; not shown: His tag
T2 sequence (P16410 36-161 limits assumed): as the sequence (G7PL88 entry or part of it limits assumed, form in doubt) above, with N14S, T18I, M106L counted along it
The assay can be described thus: SPR (Carterra). As for the experimental part: (§3) Then, goat anti-Human IgG Fc (Southern Biotech 2047-01) was coupled for 10 minutes at […] in 10 mM Sodim Acetate pH 4.5 (Carterra Inc.). The surface was then deactivated with 1 M ethanolamine pH 8.5 (Carterra Inc.). Running buffer used for the lawn immobilization was HBS-EPC (10 mM HEPES, 150 mM NaCl, 3 mM EDTA, 0.05% Tween 20, pH 7.4; Teknova).
(§4) The sensor chip was then transferred to a continuous flow microspotter (CFM; Carterra Inc.) for array capturing. The mAb supernatants were diluted 50-fold ([…] final concentration) into HBS-EPC with 1 mg/mL BSA. The samples were each captured twice with 15-minute and 4-minute capture steps on the first and second prints, respectively, to create multiple densities, using a […] flow rate. The running buffer in the CFM was also HBS-EPC.
(§5) Next, the sensor chip was loaded onto an SPR reader (MX-96 system; Ibis Technologies) for the kinetic analysis. CTLA-4 was injected at five increasing concentrations in a four-fold dilution series with concentrations of 1.95, 7.8, 31.25, 125, and 500 nM in running buffer (HBS-EPC with 1.0 mg/mL BSA). CTLA-4 injections were 5 minutes with a 15-minute dissociation at […] in a non-regenerative kinetic series. An injection of the goat anti-Human IgG Fc capture antibody at […] was injected at the end of the series to verify the capture level of each mAb. Binding data was double referenced by subtracting an interspot surface and a blank injection and analyzed for ka (on-rate), kd (off-rate), and KD (affinity) using the Kinetic Interaction Tool software (Carterra Inc.).

Assay [3] addresses T2, His-tagged human CTLA-4 (CT4-H5229; …). Kind of assay: SPR (Carterra). As for the experimental part:
as §3, §4, §5
The source holds these as a separate data set.

The target in assay [4] is T3, human CTLA-4 expressed on the cell surface (human, UniProt P16410 36-223). Kind of assay: cell-based or functional assay.
T3 sequence (P16410 36-223 limits assumed): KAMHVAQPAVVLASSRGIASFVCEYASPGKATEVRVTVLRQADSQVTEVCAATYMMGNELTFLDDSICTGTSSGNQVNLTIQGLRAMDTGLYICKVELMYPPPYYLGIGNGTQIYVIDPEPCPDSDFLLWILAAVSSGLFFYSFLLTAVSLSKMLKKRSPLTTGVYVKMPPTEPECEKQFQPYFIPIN
Assay [5] has as its target T3, human CTLA-4 expressed on the cell …. The assay can be described thus: cell-based or functional assay. The source holds these as a separate data set.
The target of assay [6] is T2, His-tagged human CTLA-4 (CT4-H5229; …). Kind of assay: SPR (Carterra), soluble human CTLA-4.
The target of assay [7] is T1, His-tagged cynomolgus CTLA-4 …. Kind of assay: BLI (Octet), single antigen concentration. On the procedure:
(§6) Table 23. In vitro characterization of scFvs reformatted as full-length antibodies. kon, koff, and KD of the indicated CTLA-4 mAbs for soluble human CTLA-4 was determined by SPR (Carterra). Geometric MFI of the indicated CTLA-4 mAbs bound to CTLA-4⁺ or CD27⁺ CHO cells as detected by a secondary human IgG antibody and flow cytometry. Affinity (KD) of the indicated CTLA-4 mAbs for soluble cynomolgus CTLA-4 was determined by a single antigen concentration BLI measurement (Octet). […] Due to constraints on sample size in each Promega bioassay kit, this set of aCTLA-4 mAbs was analyzed using multiple plates (plate letters correspond to Plate A-D in FIG. 20D).
Antibodies were loaded at 5 μg/mL onto Protein A biosensors that were dipped into 80 nM antigen, and kinetic constants were calculated using a monovalent model.

Assay [8] has as its target T3, human CTLA-4 expressed on the cell …. Kind of assay: flow cytometry, 10 µg/mL mAb, geometric MFI. On the procedure: as §6
(§7) To determine if the CTLA-4 mAbs bound the appropriate antigen expressed on the surface of mammalian cells, CHO cell lines stably expressing human CTLA-4 or an irrelevant antigen (CD27) were generated. Cells (0.5×10⁶ each cell line) were combined and washed with MACS buffer (Dulbecco's Phosphate Buffered Saline [DPBS], with 0.5% bovine serum albumin [BSA], and 2 mM ethylenediaminetetraacetic acid [EDTA]). The cells were incubated with 10 μg/mL anti-CTLA-4 for 30 min at 4° C., then excess, unbound mAbs were removed by washing twice with MACS buffer. The cells were then stained with PE-conjugated anti-Human IgG Fc antibody (clone M1310G05, BioLegend 410720, San Diego, Calif., USA) to detect bound anti-CTLA-4 and with fluorescein isothiocyanate (FITC)-conjugated anti-CD27 (clone 0323, BioLegend 302806, San Diego, Calif., USA) to distinguish the cells expressing the irrelevant antigen. Cells were washed twice with MACS buffer, fixed with 4% paraformaldehyde fixation buffer (BioLegend 420801, San Diego, Calif., USA) for 20 minutes at room temperature and washed twice more with MACS buffer.

Assay [9] deals with T4, CD27 on CHO cells (UniProt P26842 20-260, limits assumed).
T4 construct: whole, on cells; also called CD27+ CHO cells; irrelevant antigen (CD27)
T4 sequence (P26842 20-260 limits assumed): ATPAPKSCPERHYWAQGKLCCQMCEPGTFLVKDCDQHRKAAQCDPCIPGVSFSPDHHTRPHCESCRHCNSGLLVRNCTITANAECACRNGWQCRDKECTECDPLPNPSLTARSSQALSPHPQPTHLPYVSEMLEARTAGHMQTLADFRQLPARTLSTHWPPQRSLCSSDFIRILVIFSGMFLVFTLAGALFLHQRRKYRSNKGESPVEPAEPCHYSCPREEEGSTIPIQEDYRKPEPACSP
The assay can be described thus: flow cytometry, 10 µg/mL mAb, geometric MFI. As for the experimental part: as §6, §7
(In flow cytometry, cells or beads pass a laser one at a time.)

Assay [10] concerns the target T4, CD27 on CHO cells. Kind of assay: flow cytometry, mixed CTLA-4+ and CD27+ CHO cells. As for the experimental part:
To determine if the CTLA-4 mAbs bound the appropriate antigen expressed on the surface of mammalian cells, CHO cell lines stably expressing human CTLA-4 or an irrelevant antigen (CD27) were generated. Cells (0.5×10⁶ each cell line) were combined and washed with MACS buffer (Dulbecco's Phosphate Buffered Saline [DPBS], with 0.5% bovine serum albumin [BSA], and 2 mM ethylenediaminetetraacetic acid [EDTA]). The cells were incubated with 10 μg/mL anti-CTLA-4 for 30 min at 4° C., then excess, unbound mAbs were removed by washing twice with MACS buffer. The cells were then stained with PE-conjugated anti-Human IgG Fc antibody (clone M1310G05, BioLegend 410720, San Diego, Calif., USA) to detect bound anti-CTLA-4 and with fluorescein isothiocyanate (FITC)-conjugated anti-CD27 (clone 0323, BioLegend 302806, San Diego, Calif., USA) to distinguish the cells expressing the irrelevant antigen. Cells were washed twice with MACS buffer, fixed with 4% paraformaldehyde fixation buffer (BioLegend 420801, San Diego, Calif., USA) for 20 minutes at room temperature and washed twice more with MACS buffer. […] Binding of mAbs to CTLA-4 on the cell surface was determined using LSR II (BD Biosciences, San Jose, Calif., USA) or CytoFLEX LX (Beckman Coulter, Brea. Calif., USA) flow cytometers and analyzed using FlowJo (v10.6.1, BD Biosciences, San Jose, Calif., USA).

Sequence of mouse CTLA-4 (P09793 36-161 limits assumed): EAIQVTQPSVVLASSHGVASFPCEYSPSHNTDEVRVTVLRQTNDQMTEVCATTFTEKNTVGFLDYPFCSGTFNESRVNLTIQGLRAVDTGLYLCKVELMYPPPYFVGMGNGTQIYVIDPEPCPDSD

B1: antibody A9 (L9H9) (antibody, V domains shown)
VH: QVQLVESGGGVVQPGRSLRLSCAASGFTFSSHGMHWVRQAPGKGLEWVAVIWYDGSNKHYADSVKGRFTISRDNSKNTLYLQMNSLRAEDTAVYYCARGDILTGYYGYWGQGTLVTVSS
VL: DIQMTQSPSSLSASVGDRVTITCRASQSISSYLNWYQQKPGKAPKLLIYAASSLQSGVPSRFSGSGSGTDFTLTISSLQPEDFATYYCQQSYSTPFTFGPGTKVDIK
notes: also called aCTLA-4.24
Turning to B1, the Kd was 0.92 nM in assay [1]; 6.8 nM in assay [2]; 6.8 nM in assay [3]; 6.8 nM in assay [6]; 0.9 nM in assay [7]. In addition, the results for the binding result with mouse CTLA-4 and with CD27 on CHO cells [10] were “no binding (tested: 300 nM)” and “no binding (tested: 10 µg/mL)”, respectively. Also, the koff in assay [3] and in assay [6] was 0.00043 s⁻¹ each time. Further, the kon in assay [3] and in assay [6] was 63000 M⁻¹ s⁻¹ throughout. For the same molecule, in [4], the “Promega assay % inhibition” value turned out to be 60.8%. For the same molecule, the “Promega assay antagonist (EC50, ug/mL)” value in assay [4] came to 0.19 µg/mL. Besides, in [5], the “Cell-based blocking activity EC50” value turned out to be 0.19 mg/L. For the same molecule, the “Cell-based blocking activity max signal (RLU)” value in [5] was 333 RLU. Moreover, the “MFI of CTLA-4+ CHO cells” value in assay [8] is 934. Besides, the “MFI of CD27+ CHO cells” value with CD27 on CHO cells [9] worked out at 26.

B2: antibody A3 (L3H3) (antibody, V domains shown)
VH: B1 VH with A23I, H32Y, I51N, D100G, I101V, L102W, T103G, G104P, Y106F, G107D
VL: not shown
notes: also called aCTLA-4.2
With B2, the Kd in [1] is 1.2 nM; in assay [2], 1.5 nM; in assay [3], 1.5 nM; in assay [6] it was 1.5 nM; in [7] it was 1.2 nM. Moreover, the binding result is “no binding (tested: 300 nM)” in the assay with mouse CTLA-4 and “no binding (tested: 10 µg/mL)” with CD27 on CHO cells [10]. Further, the koff in assay [3] and in assay [6] was 0.00028 s⁻¹ in each case. The kon in [3] and in [6] was 190000 M⁻¹ s⁻¹ each time. In addition, in [4], the “Promega assay % inhibition” value stood at 49.8%. In [4], the “Promega assay antagonist (EC50, ug/mL)” value stood at 0.18 µg/mL. The “Cell-based blocking activity EC50” value in [5] was 0.18 mg/L. Further, the “Cell-based blocking activity max signal (RLU)” value in assay [5] was determined as 273 RLU. The “MFI of CTLA-4+ CHO cells” value in assay [8] is 1050. Besides, in the assay with CD27 on CHO cells [9], the “MFI of CD27+ CHO cells” value was found to be 18.2.

B3: antibody A10 (L10H10) (antibody, V domains shown)
VH: QVQLVESGGGVVQPGRSLRLSCVASGFTLSSYGMHWVRQAPGKGLEWVAVIWYDGSNKHYADSVKGRFTISRDNSKNTLSLQMNSLRAEDTAVYYCARGGQLGPFDYWGQGTLVTVSS
VL: not shown
notes: also called aCTLA-4.22
For the molecule B3, the Kd in assay [1] turned out to be 3.1 nM; in assay [2], 22 nM; in assay [3] it was 22 nM; in [6], 22 nM; in assay [7], 3.1 nM. For the same molecule, the binding result is given as “no binding (tested: 300 nM)” in the assay with mouse CTLA-4 and “no binding (tested: 10 µg/mL)” with CD27 on CHO cells [10]. Besides, the koff in assay [3] and in assay [6] was 0.00051 s⁻¹ in each case. The kon in assay [3] and in assay [6] was 23000 M⁻¹ s⁻¹ throughout. Moreover, the “Promega assay % inhibition” value in assay [4] came to 24.5%. For the same molecule, the “Promega assay antagonist (EC50, ug/mL)” value in assay [4] is 0.26 µg/mL. For the same molecule, the “Cell-based blocking activity EC50” value in assay [5] was found to be 0.26 mg/L. In [5], the “Cell-based blocking activity max signal (RLU)” value was 134 RLU. In addition, the “MFI of CTLA-4+ CHO cells” value in assay [8] worked out at 641. In addition, the “MFI of CD27+ CHO cells” value with CD27 on CHO cells [9] is 15.2.

B4: antibody A8 (L8H8) (antibody, V domains shown)
VH: B3 VH with V23A, L29F, S31R, S56R, H59Y, S80Y, V93L, Y95S, G99A, Q101E
VL: EIVLTQSPGTLSLSPGERATLSCRASQSVSYLAWYQQKPGQAPRLLIYGASSRATGIPDRFSGSGSGTDFTLTISRLEPEDFAVYYCQQYGSSPWTFGQGTKVEIK
notes: also called aCTLA-4.1
With B4, the dissociation constant (Kd) in [1] worked out at 1 nM; in [2], 4.6 nM; in [3] it was 4.6 nM; in assay [6] it was 4.6 nM; in [7] it was 1 nM. For the same molecule, the binding result is reported as “no binding (tested: 300 nM)” in the assay with mouse CTLA-4 and “no binding (tested: 10 µg/mL)” with CD27 on CHO cells [10]. Besides, the koff in assay [3] and in [6] was 0.00039 s⁻¹ throughout. Also, the kon in assay [3] and in assay [6] was 85000 M⁻¹ s⁻¹ in each case. Further, the “Promega assay % inhibition” value in assay [4] was determined as 54.7%. For the same molecule, the “Promega assay antagonist (EC50, ug/mL)” value in [4] amounted to 0.15 µg/mL. Also, the “Cell-based blocking activity EC50” value in [5] came to 0.1 mg/L. The “Cell-based blocking activity max signal (RLU)” value in assay [5] is 349 RLU. The “MFI of CTLA-4+ CHO cells” value in assay [8] turned out to be 1010. The “MFI of CD27+ CHO cells” value with CD27 on CHO cells [9] amounted to 18.6.
